The values that follow come from paper PMC3918674 (Journal of molecular biology, 2013).

The target of data set [1] is ClpAP complex (hexameric ClpA associated with tetradecameric ClpP) (Escherichia coli, UniProt P0ABH9 1-758; P0A6G7 15-207). The experiment in a line: single-turnover stopped-flow fluorescence.
The data set “SEC” deals with the molecule itself. Kind of data set: SEC. For orientation: SEC sorts molecules by how far they enter the pores of the column.

Where no end group is shown, it is not given here.

ClpAP complex (hexameric ClpA associated with tetradecameric ClpP), sequence (P0ABH9 whole entry, chain 1 of 2): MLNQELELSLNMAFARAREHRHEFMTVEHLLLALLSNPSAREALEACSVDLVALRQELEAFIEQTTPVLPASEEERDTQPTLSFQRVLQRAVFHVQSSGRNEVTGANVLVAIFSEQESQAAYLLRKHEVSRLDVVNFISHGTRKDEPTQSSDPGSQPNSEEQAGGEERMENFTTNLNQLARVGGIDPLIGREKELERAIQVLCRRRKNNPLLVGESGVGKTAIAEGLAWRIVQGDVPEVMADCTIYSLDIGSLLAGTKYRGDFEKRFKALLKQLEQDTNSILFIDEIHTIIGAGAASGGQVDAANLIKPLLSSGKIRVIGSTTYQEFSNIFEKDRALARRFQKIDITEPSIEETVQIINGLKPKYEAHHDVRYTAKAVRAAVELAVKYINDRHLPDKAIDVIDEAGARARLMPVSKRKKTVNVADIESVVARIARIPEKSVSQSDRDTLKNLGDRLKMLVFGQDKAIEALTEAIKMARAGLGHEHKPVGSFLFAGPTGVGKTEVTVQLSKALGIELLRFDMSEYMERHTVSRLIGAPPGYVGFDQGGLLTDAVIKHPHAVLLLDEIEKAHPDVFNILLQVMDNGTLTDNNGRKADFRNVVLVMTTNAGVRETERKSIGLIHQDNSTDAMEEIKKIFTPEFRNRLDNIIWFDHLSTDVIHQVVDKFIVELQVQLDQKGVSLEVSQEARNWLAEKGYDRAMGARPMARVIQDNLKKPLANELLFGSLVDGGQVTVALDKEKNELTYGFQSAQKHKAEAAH
ClpAP complex (hexameric ClpA associated with tetradecameric ClpP), sequence (P0A6G7 15-207, chain 2 of 2): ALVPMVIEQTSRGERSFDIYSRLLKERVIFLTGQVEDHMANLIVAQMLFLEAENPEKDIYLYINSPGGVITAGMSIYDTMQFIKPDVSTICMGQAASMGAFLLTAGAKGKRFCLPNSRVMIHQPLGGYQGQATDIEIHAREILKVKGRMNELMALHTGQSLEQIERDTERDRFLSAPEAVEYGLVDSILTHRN

On to C(fluorescein‑5‑maleimide)TGEVSFQAANTKSAANLKVKELRSKKKLAANDENYALAA [N-Cys-40 polypeptide translocation substrate], for which the binding result in data set [1] was “binds”.

B1: Escherichia coli ClpP (enzyme)
chain: not shown
The term stoichiometry N denotes the number of molecules, sites or subunits per partner or assembly. As to B1, the “stoichiometry N” value in “SEC” came to 7.
Take C(fluorescein‑5‑maleimide)LILHNKQLGMTGEVSFQAANTKSAANLKVKELRSKKKLAANDENYALAA [N-Cys-50 polypeptide translocation substrate]: the binding result in data set [1] is recorded as “binds”.
Regarding C(fluorescein‑5‑maleimide)TKSAANLKVKELRSKKKLAANDENYALAA [N-Cys-30 polypeptide translocation substrate], the binding result in data set [1] is “binds”.
